Assay results taken from US20230049152A1 (Genentech, published 2023).

T1: T10A
T1 construct: single alanine mutant of hCCR8; also called hCCR8 T10A
T1 receptor chain: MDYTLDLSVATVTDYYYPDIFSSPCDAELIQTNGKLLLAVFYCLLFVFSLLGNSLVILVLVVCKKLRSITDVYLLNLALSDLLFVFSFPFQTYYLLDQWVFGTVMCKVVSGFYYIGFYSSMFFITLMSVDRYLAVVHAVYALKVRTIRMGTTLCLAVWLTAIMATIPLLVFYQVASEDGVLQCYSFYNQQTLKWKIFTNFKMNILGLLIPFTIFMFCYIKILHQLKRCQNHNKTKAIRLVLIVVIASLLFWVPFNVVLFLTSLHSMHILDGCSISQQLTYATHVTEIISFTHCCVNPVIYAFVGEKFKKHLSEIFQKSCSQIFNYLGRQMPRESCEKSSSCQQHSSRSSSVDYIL

T2: T11A
T2 construct: single alanine mutant of hCCR8; also called hCCR8 T11A
T2 receptor chain: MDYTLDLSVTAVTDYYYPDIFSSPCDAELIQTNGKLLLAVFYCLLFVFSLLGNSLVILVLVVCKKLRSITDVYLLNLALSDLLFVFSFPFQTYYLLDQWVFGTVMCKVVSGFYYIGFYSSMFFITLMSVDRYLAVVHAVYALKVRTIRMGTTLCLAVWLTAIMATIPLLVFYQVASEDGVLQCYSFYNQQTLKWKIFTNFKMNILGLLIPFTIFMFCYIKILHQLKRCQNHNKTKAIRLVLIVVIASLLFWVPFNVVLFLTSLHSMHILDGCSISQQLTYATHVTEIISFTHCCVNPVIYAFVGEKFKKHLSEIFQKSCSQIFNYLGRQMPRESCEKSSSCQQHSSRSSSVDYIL

T3: P18A
T3 construct: single alanine mutant of hCCR8; also called hCCR8 P18A
T3 receptor chain: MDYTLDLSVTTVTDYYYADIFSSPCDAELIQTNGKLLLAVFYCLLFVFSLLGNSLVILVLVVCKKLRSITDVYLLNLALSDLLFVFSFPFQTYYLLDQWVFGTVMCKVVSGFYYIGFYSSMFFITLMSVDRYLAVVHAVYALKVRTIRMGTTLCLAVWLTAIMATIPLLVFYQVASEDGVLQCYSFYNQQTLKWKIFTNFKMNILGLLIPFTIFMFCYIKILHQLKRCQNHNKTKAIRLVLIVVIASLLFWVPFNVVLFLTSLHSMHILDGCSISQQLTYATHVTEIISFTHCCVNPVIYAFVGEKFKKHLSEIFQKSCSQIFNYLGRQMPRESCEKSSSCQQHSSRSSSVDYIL

T4: F21A
T4 construct: single alanine mutant of hCCR8; also called hCCR8 F21A
T4 receptor chain: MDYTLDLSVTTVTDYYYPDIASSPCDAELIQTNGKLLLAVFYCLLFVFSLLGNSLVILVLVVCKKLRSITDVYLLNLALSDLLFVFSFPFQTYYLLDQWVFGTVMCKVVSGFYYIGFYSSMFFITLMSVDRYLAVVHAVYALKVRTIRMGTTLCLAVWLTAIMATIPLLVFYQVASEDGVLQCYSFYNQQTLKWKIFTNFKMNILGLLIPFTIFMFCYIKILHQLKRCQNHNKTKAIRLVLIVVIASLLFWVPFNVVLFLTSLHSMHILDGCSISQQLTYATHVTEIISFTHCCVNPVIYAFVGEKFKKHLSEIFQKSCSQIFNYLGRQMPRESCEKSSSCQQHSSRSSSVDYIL


Assays:
hCCR8 L5A = biological target: T5, hCCR8 L5A (human, UniProt P51685 1-355); experiment: flow cytometry on transfected HEK 293 cells
T5 construct: alanine point mutant on transfected HEK 293 cells
Protocol: (§1) To epitope map fucosylated hu.Ab5.H13L1, the binding to alanine point mutations in human CCR8 was analyzed by flow cytometry.
Constructs encoding for individual alanine point mutations at positions 2-24 in hCCR8 with a C-terminal FLAG tag were generated. HEK 293 cells were transfected with constructs encoding for mutant hCCR8 or with a mock construct using transIT X2 (reagent:DNA=3:1) for 24 hrs, and surface stained with the huCCR8 antibody hu.Ab5.H13L1 (hIgG1), then fixed and permeabilized and followed by FITC-anti-Flag (Sigma F4049).

T10A = biological target: T1, T10A; experiment: flow cytometry, HEK293 transfected with hCCR8 T10A with C-terminal FLAG; sheet prints [huCCR8]=0.02 ug/ml
T11A = biological target: T2, T11A; experiment: flow cytometry, HEK293 transfected with hCCR8 T11A with C-terminal FLAG; sheet prints [huCCR8]=0.02 ug/ml
Protocol: (§2) FIGS. 16A-16B depict the epitope maps for hu.Ab5.H13L1 (FIG. 16A) and hu.Ab4.H12L3 (FIG. 16B) mAbs.
as §1

P18A = biological target: T3, P18A; experiment: flow cytometry, HEK293 transfected with hCCR8 P18A with C-terminal FLAG; sheet prints [huCCR8]=0.02 ug/ml
F21A = biological target: T4, F21A; experiment: flow cytometry, HEK293 transfected with hCCR8 F21A with C-terminal FLAG; sheet prints [huCCR8]=0.02 ug/ml
Protocol: as §2, §1

human CCR8 = biological target: T6, human CCR8 (human, UniProt P51685 1-355); experiment: flow cytometry, CHO-huCCR8.Gna15 cells, relative to rb.Ab4
T6 construct: the assay field says which; also called hCCR8; huCCR8
Protocol: Evaluation of CCR8 binding of the humanized variants with a hIgG1 Fc involved screening by flow cytometry, and comparing the relative EC₅₀ and MFI on human CCR8 CHO cells to the parental rabbit antibodies. Specifically, stable CHO-huCCR8.Gna15 cells were stained with various concentrations (starting from 10 ug/ml or 66.66 nM, 1:4 serial dilution for total 8 concentration points) of Ab4 and Ab5 variants at 4° C. for 30 minutes, then washed twice with FACS buffer (PBS with 0.5% BSA and 0.2 mM EDTA) and followed by staining with AF647-anti-hIgG at 4° C. for 15 min. Cells were washed twice with FACS buffer, and re-suspended in FACS buffer with propidium iodide (0.5 ug/ml) and analyzed with iQue3 (Sartorius).

binding result (hCCR8 L5A)	binding result (T10A)	binding result (T11A)	binding result (P18A)	binding result (F21A)	Relative EC50 (human CCR8) [ratio]	Relative MFI (human CCR8) [ratio]	Binder
no binding	binds	binds	binds	binds	–	–	hu.Ab5.H13L1 (antibody, human IgG1, kappa, fucosylated human IgG1; also called Ab5 variant) heavy: not shown light: DIQVTQSPSSLSASVGDRVTITCQASENIANALAWYQQKPGKPPKFLIYGASNLASGVPSRFSGSGSGTDFTFTISSLQPEDIATYYCQQAYYGNSFVEGTFGGGTKVEIKRTVAAPSVFIFPPSDEQLKSGTASVVCLLNNFYPREAKVQWKVDNALQSGNSQESVTEQDSKDSTYSLSSTLTLSKADYEKHKVYACEVTHQGLSSPVTKSFNRGEC
–	–	–	–	–	0.88	0.95	hu.Ab4.H1L1 (antibody, human IgG1, kappa, also called hu.Ab4.H1Ll) heavy: not shown light: DYQMTQSPSSLSASVGDRVTITCQASQSISSYLSWYQQKPGKRPKLLIYKASTLASGVPSRFSGSGSGTDFTLTISSLQPEDFATYYCQQGYTSSNIDNIFGGGTKVEIKRTVAAPSVFIFPPSDEQLKSGTASVVCLLNNFYPREAKVQWKVDNALQSGNSQESVTEQDSKDSTYSLSSTLTLSKADYEKHKVYACEVTHQGLSSPVTKSFNRGEC
